Among the data in patent US20150266963A1 are IC50 and EC50 (read off the curve) values, retold here.

Assay [1] addresses T1, recombinant human CD70 (Flag-TNC-CD70) (human) (UniProt P32970).
T1 sequence (looked up): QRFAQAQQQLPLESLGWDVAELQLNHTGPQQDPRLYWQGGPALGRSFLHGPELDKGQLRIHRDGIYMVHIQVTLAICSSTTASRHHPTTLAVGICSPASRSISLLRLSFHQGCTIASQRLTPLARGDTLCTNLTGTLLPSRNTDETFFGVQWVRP
Nature of the assay: blocking ELISA; human Flag-TNC-CD70; competitor CD27-Fc. (In general: An ELISA detects its analyte on a solid surface through an enzyme-linked reagent.)

Assay [2] concerns the target T2, human CD70 expressed on the surface of cells (human) (UniProt P32970).
T2 sequence (looked up): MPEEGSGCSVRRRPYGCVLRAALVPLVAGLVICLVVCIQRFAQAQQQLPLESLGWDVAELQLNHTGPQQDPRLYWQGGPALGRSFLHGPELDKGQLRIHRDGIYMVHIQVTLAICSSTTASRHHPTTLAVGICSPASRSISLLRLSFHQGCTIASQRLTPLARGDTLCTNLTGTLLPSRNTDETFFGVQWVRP
The experiment in a line: flow cytometry on U266 cells, 1 h at 4 °C, anti-hIgG1-Fc-FITC or anti-hIgG-Fc-PE [panel U266].

Assay [3] concerns the target T1, recombinant human CD70 (Flag-TNC-CD70) (human). The experiment in a line: blocking ELISA; Flag-TNC-CD70 captured by anti-FLAG M2; competitor CD27-Fc 6.5 nM.
In assay [4] the target is T2, human CD70 expressed on the surface of cells (human). Nature of the assay: flow cytometry on U266 cells, goat anti human IgG1 FITC [panel U266]. A general note: In flow cytometry, cells or beads pass a laser one at a time.
Assay [5] shares this target. Nature of the assay: flow cytometry on SU-DHL-6 cells, 1 h at 4 °C, anti-hIgG1-Fc-FITC or anti-hIgG-Fc-PE [panel SU-DHL-6].

For the substance MDX1411 (antibody), the half-inhibitory concentration (IC50) (usually the concentration at which inhibition is half-maximal) in assay [1] is 0.044 µg/mL; in assay [3], 5.5 µg/mL. Also, the EC50 (read off the curve) (in general, the concentration that produces a half-maximal response) came out at 0.1 µg/mL in assay [2], 0.1 µg/mL in assay [4] and 2 µg/mL in assay [5].
